Assay results taken from US20220227866A1 (VELOSBIO, published 2022).
“And” between values parts separate entries of the source, which are not always exact repeats. Equal values may be shown once. Blank lines part the entries; values can stand above or below the binder they belong to.

Experiments:
[1] = target: T1, human ROR1 on cells (human, UniProt Q01973 30-937); assay: cell-based or functional assay
[2] = target: T1, human ROR1 on cells; assay: cell-based or functional assay; remark: listed apart in the source
[3] = target: T2, human CD3 on Jurkat cells (human, UniProt P09693 23-182; P04234 22-171; P07766 23-207); assay: flow cytometry on Jurkat cells
T2 construct: GenBank NP_000064.1, NP_000723.1, NP_000724.1
Method in brief: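 Jurkat cells (2.5E5 per condition) incubated with bispecific molecule in PBS/2% FBS on ice for 20 min, then detected with PE-labelled anti-human Fc (1:500, 20 min on ice). Cells fixed in 2% paraformaldehyde and bound antibody measured by flow cytometry.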

[4] = target: T3, recombinant human ROR1 extracellular domain (human, UniProt Q01973 30-406); assay: ELISA, immobilised ROR1 ECD, construct titrated
T3 construct: Bought (Acro Biosystems cat. R01-H522Y); whole entry named; also called ROR1-ECD; immobilized ROR1

[5] = target: T4, soluble biotinylated human ROR1 extracellular domain (human, UniProt Q01973 30-406, biotinylated with EZ-Link Sulfo-NHS-LC-Biotin at a 1:5 molar ratio); assay: ELISA, captured construct, biotinylated ROR1 titrated; first of the two values given
T4 construct: Acro Biosystems cat; whole entry named; also called b-ROR1; soluble b-ROR1
Description: (§1) To measure the binding of bispecific constructs to soluble ROR1, a 96-well Costar-3366 plate was coated with 50 μL/well of 2 μg/mL goat anti-human kappa (Southern Biotech cat. #2060-01) in PBS overnight at 4° C. The plate was rinsed once with PBS-T, blocked with 100 μL/well 5% M-P for 1 h at 25° C., rinsed once with PBS-T, and 2 μg/mL of the bispecific binding molecule was added and incubated for 1 h at 25° C. The plate was washed three times with PBS-T. Biotinylated ROR1 was diluted serially, 3-fold in 5% M-P and was incubated for 1 h at 25° C. (50 μL/well). The plate was washed three times with PBS-T. To detect the binding of b-ROR1, 50 μL/well Neutravidin-HRP (Pierce cat. #31030) diluted 1:5000 in 1% BSA-PBS was added for 1 h at 25° C. […] The reaction was terminated by the addition of 2 N H₂SO₄ and the A450 was determined using a Spectramax plate reader.
(§2) The stronger binding observed with bivalent constructs versus monovalent constructs in cell assays and ELISAs in which the antigen is immobilized is consistent with an avidity effect. To determine if this was the case, binding to soluble monomeric ROR1 was assessed by immobilizing the bispecific binding molecules on a microtiter plate coated with goat anti-human kappa antibody and titrating biotinylated RORL. […]

[6] = target: T4, soluble biotinylated human ROR1 …; assay: ELISA, captured construct, biotinylated ROR1 titrated; second of the two values given
Description: as §1, §2

[7] = target: T1, human ROR1 on cells; assay: flow cytometry, ROR1-transfected MEC cells, 30 µg/mL
Description: Internalization of bispecific binding molecules was measured using a pulse-chase methodology that quantitates non-internalized, cell surface antibody at 0, 30, 60, 120, 180, and 240 minutes using flow cytometry. ROR1-transfected MEC cells were washed with cold PBS and resuspended at 1×10⁷ per mL in cold incubation buffer (RPMI with 2% FBS—Fisher/Gibco cat. #16140071). Then, 3.5×10⁶ cells were aliquoted to microcentrifuge tubes for each bispecific construct tested. An equal volume (350 μL) of bispecific binding molecule was combined with the cells to make a final concentration of 30 μg/mL. […] Cells and antibody were incubated on ice for 20 minutes, washed five times with 1 mL of cold FACS buffer (PBS with 2% FBS), and resuspended in 1.4 mL of incubation buffer. Subsequently, the samples were incubated at 37° C. for 0, 30, 60, 120, 180, and 240 minutes after which time 200 μL of each sample was transferred to ice to halt internalization.
Samples for each construct and timepoint were split in half (100 μL each) and spun down. Half of the samples were resuspended in 100 μL secondary antibody (goat anti-human IgG-PE, Fc-gamma specific—eBiosciences cat. #12-4998) to detect bound bispecific constructs. The other half was stained with 100 μL cocktail of UC961-PE and 4A5-AlexaFluor647. […] Subsequently, fixed cells were washed once with FACS buffer and analyzed.

[8] = target: T4, soluble biotinylated human ROR1 …; assay: ELISA, captured construct, biotinylated ROR1 titrated
[9] = target: T3, recombinant human ROR1 extracellular …; assay: ELISA, immobilised ROR1 ECD, antibody titrated
Description: A 96-well Costar-3366 plate was coated with 50 μL/well of 2 μg/mL […] (Acro Biosystems cat. #R01-H522Y) in PBS overnight at 4° C. The plate was rinsed once with PBS containing 0.05% Tween 20 (PBS-T) and blocked with 100 μL/well of 5% non-fat milk in PBS (5% M-P) for 1 h at 25° C. Antibody samples were serially diluted 2-fold using 5% M-P and were incubated for 1 h at 25° C. (50 μL/well). The plate was washed three times with PBS-T and 50 μL/well anti-human kappa, HRP conjugate (Southern Biotech cat. #2060-05) diluted 10,000-fold in 5% M-P was added for 1 h at 25° C. The plate was washed three times with PBS-T, developed with 50 μL/well 1-Step Ultra TMB-ELISA (Thermo Scientific cat. #34028). The reaction was terminated by the addition of 2 N H₂SO₄ and the A450 was determined using a Spectramax plate reader.
Next, the binding of bispecific binding molecules to ROR was characterized by ELISA using recombinantly-expressed extracellular domain of RORL. ROR was immobilized on a microtiter plate, the bispecific binding molecules were titrated, and binding was quantitated with an anti-human kappa-HRP reagent. Consistent with the cell binding data, all constructs bound ROR1 in a concentration-dependent manner (FIG. 6). Moreover, monovalent ROR1 constructs 13-15 bound less tightly than all but two of the bivalent constructs.

[10] = target: T4, soluble biotinylated human ROR1 …; assay: ELISA, captured antibody, biotinylated ROR1 titrated
Description: as §1, §2

T1 sequence (Q01973 30-937 limits assumed): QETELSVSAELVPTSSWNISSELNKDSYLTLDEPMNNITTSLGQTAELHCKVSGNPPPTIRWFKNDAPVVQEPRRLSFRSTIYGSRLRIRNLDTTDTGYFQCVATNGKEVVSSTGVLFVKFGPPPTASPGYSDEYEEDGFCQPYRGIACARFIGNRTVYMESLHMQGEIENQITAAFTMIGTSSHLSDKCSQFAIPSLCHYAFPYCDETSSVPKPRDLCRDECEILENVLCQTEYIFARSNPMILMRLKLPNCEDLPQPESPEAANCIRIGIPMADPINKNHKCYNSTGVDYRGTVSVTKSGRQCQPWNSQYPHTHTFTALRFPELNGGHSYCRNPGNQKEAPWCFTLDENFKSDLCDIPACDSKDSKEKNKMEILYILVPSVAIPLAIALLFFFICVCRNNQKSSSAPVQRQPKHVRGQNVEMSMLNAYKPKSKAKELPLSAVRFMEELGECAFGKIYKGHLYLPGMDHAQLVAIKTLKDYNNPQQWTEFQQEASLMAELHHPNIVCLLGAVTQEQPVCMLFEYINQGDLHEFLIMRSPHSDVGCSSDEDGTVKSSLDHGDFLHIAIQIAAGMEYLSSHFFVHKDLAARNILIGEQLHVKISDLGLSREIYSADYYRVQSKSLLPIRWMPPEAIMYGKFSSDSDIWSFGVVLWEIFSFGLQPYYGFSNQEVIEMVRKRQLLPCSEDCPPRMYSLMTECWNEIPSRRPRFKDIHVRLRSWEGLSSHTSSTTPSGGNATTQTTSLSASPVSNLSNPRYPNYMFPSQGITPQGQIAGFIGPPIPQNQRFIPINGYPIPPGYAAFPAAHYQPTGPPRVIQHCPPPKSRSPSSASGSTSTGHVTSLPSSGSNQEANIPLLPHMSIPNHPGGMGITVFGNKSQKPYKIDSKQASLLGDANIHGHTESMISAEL
T4 sequence (Q01973 30-406 limits assumed): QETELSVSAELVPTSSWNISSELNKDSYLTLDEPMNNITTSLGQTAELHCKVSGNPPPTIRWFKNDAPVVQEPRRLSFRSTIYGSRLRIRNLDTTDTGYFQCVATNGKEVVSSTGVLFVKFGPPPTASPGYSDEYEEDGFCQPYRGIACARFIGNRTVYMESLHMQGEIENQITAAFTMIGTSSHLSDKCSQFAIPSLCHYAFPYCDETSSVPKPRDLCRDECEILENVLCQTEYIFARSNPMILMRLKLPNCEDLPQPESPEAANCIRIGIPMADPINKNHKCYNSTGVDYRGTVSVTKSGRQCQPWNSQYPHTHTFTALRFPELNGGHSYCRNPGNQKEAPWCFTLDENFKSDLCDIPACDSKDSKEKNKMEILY
T3 sequence (Q01973 30-406 limits assumed): as above
T2 sequence (P09693 23-182 limits assumed, chain 1 of 3): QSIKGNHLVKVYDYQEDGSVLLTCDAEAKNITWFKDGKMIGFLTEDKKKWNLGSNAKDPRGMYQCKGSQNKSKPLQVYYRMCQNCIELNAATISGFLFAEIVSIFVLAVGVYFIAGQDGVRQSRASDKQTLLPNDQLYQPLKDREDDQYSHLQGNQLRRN
T2 sequence (P04234 22-171 limits assumed, chain 2 of 3): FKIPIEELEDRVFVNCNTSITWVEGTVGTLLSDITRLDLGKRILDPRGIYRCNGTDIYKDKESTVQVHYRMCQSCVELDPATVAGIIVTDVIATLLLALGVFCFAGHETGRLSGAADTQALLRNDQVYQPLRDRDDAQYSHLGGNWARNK
T2 sequence (P07766 23-207 limits assumed, chain 3 of 3): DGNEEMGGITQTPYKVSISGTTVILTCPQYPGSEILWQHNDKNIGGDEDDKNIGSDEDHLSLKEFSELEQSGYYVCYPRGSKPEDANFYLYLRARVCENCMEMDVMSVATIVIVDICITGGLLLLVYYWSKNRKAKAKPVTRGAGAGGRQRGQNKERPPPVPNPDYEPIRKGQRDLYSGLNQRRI

EC50, LDH release, ROR1-transfected MEC, one PBMC donor [1]: < 0.1 ng/mL
EC50, LDH release, A549 [2]: 9.95 ng/mL and 49.8 pM
EC50, LDH release, A4573 [2]: 9.71 ng/mL and 48.6 pM
EC50, LDH release, JeKo-1 [2]: 1.71 ng/mL and 8.5 pM
EC50, LDH release, MDA-MB-468 [2]: 5.55 ng/mL and 27.8 pM
EC50, LDH release, Mino [2]: 0.75 ng/mL and 3.8 pM
EC50, LDH release, NCI-H1975 [2]: 2.3 ng/mL and 11.5 pM
EC50, LDH release, Saos-2 [2]: 14.6 ng/mL and 73.2 pM
Max. LDH Release, Mino [2]: 75%
binding result [3]: binds
Kd [4]: 158 pM
Kd [5]: 268 pM
Kd [6]: 229 pM
B1: Bispecific construct 9 (bispecific antibody, human IgG1, kappa)
heavy: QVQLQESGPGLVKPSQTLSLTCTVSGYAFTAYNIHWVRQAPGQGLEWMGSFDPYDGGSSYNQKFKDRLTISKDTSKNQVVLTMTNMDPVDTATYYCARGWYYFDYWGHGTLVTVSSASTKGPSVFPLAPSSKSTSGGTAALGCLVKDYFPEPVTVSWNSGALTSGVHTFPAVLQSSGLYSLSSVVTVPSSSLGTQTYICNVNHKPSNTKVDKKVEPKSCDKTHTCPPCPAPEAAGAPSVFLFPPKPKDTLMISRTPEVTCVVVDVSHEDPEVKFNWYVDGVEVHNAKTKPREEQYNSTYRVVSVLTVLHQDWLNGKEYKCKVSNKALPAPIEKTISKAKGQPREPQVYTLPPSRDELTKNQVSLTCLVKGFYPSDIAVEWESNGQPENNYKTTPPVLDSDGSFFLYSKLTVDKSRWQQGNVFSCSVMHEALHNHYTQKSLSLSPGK
light: DIVMTQTPLSLPVTPGEPASISCRASKSISKYLAWYQQKPGQAPRLLIYSGSTLQSGIPPRFSGSGYGTDFTLTINNIESEDAAYYFCQQHDESPYTFGEGTKVEIKRTVAAPSVFIFPPSDEQLKSGTASVVCLLNNFYPREAKVQWKVDNALQSGNSQESVTEQDSKDSTYSLSSTLTLSKADYEKHKVYACEVTHQGLSSPVTKSFNRGECGGGGSGGGGSEVQLVESGGGLVQPGGSLRLSCAASGFTFNTYAMNWVRQAPGKGLEWVARIRSKYNNYATYYADSVKGRFTISRDDSKNTLYLQMNSLRAEDTAVYYCVRHGNFGNSYVSYFAYWGQGTTVTVSSGGGGSGGGGSGGGGSGGGGSEIVVTQSPATLSVSPGERATLSCRSSTGAVTAANYANWVQEKPGQAFRGLIGGANKRAPGVPARFSGSLSGDEATLTISSLQSEDFAVYYCALFYSNLWVFGQGTKLEIK
notes: anti-CD3 scFv Ab10 (SP34-based); ROR1 arm Ab1; valency 2/2

EC50, LDH release, ROR1-transfected MEC [2]: 12 ng/mL and 96 pM
Max. LDH Release, ROR1-transfected MEC [2]: 46%
binding result [3]: binds
Kd [4]: 194 pM
binding extent relative to the saturated MFI of constructs 1 and 7 at time 0 [7]: ~80%
Kd [8]: 226 pM
B2: Bispecific construct 13 (bispecific antibody, human IgG1, kappa)
heavy 1: not shown
heavy 2: QVQLVQSGGGVVQPGRSLRLSCKASGYTFTRYTMHWVRQAPGKGLEWIGYINPSRGYTNYNQKVKDRFTISRDNSKNTLYLQMDSLRAEDTAVYYCARYYDDHYSLDYWGQGTTVTVSSGGGGSGGGGSGGGGSGGGGSDIQMTQSPSSLSASVGDRVTITCSASSSVSYMNWYQQKPGKAPKRWIYDTSKLASGVPSRFSGSGSGTDFTFTISSLQPEDIATYYCQQWSSNPFTFGQGTKLEIKEPKSSDKTHTCPPCPAPEAAGAPSVFLFPPKPKDTLMISRTPEVTCVVVDVSHEDPEVKFNWYVDGVEVHNAKTKPREEQYNSTYRVVSVLTVLHQDWLNGKEYKCKVSNKALPAPIEKTISKAKGQPREPQVYTLPPSRDELTKNQVSLSCAVKGFYPSDIAVEWESNGQPENNYKTTPPVLDSDGSFFLVSKLTVDKSRWQQGNVFSCSVMHEALHNHYTQKSLSLSPGK
light: DIVMTQTPLSLPVTPGEPASISCRASKSISKYLAWYQQKPGQAPRLLIYSGSTLQSGIPPRFSGSGYGTDFTLTINNIESEDAAYYFCQQHDESPYTFGEGTKVEIKRTVAAPSVFIFPPSDEQLKSGTASVVCLLNNFYPREAKVQWKVDNALQSGNSQESVTEQDSKDSTYSLSSTLTLSKADYEKHKVYACEVTHQGLSSPVTKSFNRGEC
notes: ROR1 arm Ab1; CD3 valency 1, ROR1 valency 1

Kd [9]: 37 pM
Kd [10]: 158 pM and 145 pM
B3: parental anti-ROR1 IgG (Ab1) (antibody, V domains shown)
VH: QVQLQESGPGLVKPSQTLSLTCTVSGYAFTAYNIHWVRQAPGQGLEWMGSFDPYDGGSSYNQKFKDRLTISKDTSKNQVVLTMTNMDPVDTATYYCARGWYYFDYWGHGTLVTVSS
VL: DIVMTQTPLSLPVTPGEPASISCRASKSISKYLAWYQQKPGQAPRLLIYSGSTLQSGIPPRFSGSGYGTDFTLTINNIESEDAAYYFCQQHDESPYTFGEGTKVEIKR
notes: also called Control; parental IgG
